{"source": "patent US20250243265A1", "key": {"[1]": {"target": "K63-linked diubiquitin (Boston Biochem) (Homo sapiens (Human)) (UniProt P0CG48)", "experiment": "western blot, 1 µg/mL IgG, two-fold dilutions of K63-linked diubiquitin"}, "[2]": {"target": "endogenous K48 polyubiquitin linkages in 293T cell lysates (human) (UniProt P0CG48)", "experiment": "IP in 7 M urea from LUBAC over-expressing 293T lysate (input 12420), mass spec AQUA"}, "[3]": {"target": "endogenous K63 polyubiquitin linkages in 293T cell lysates (human) (UniProt P0CG48)", "experiment": "IP in 7 M urea from LUBAC over-expressing 293T lysate (input 5075), mass spec AQUA"}}, "data": [{"substance": "Apu3.A8 anti-K63 IgG (antibody)", "values": [{"measurement": "limit of detection in western blot", "setting": "[1]", "value": 62, "unit": "ng"}]}, {"substance": "isotype control IgG (unrelated human kappa IgG1 antibody)", "values": [{"measurement": "polyubiquitin linkages recovered in the IP", "setting": "[2]", "value": 1, "unit": "pmol"}, {"measurement": "polyubiquitin linkages recovered in the IP", "setting": "[3]", "value": 0, "unit": "pmol"}]}]}
